Measurements published in patent publication US20220306695A1, “COMPSTATIN ANALOGUES AND THEIR MEDICAL USES” (priority 2019, published 2022).
Starred links: 1 amine or outer side, 2 acyl side, 3 side chain; linkers in the order of their positions; H or OH if unused. Positions of bridges follow the written chain, without caps; N, C: chain ends. Non-standard residues stand in square brackets, D forms with d. Groups on a side chain read outwards from the residue. *: point of attachment. Trp(1-Me) = Cn1cc(C[C@H](N)C(=O)O)c2ccccc21; C18 diacid = O=C(O)CCCCCCCCCCCCCCCCC(=O)*; C16 diacid = O=C(O)CCCCCCCCCCCCCCC(=O)*; γGlu = O=C(O)[C@H](CCC(=O)[*:2])N[*:1]; hCys = N[C@@H](CCS)C(=O)O; AEEA = NCCOCCOCC(=O)O; Sar = CNCC(=O)O

B1: Compound 165 (peptide)
peptide: Ac-SEF[hCys]I[Trp(1-Me)]QDWGEHRATEGE[AEEA]ESK([γGlu-C18 diacid])-NH2
modifications: thioether 4-14
SMILES: CC[C@H](C)[C@@H]1NC(=O)[C@@H](NC(=O)[C@H](Cc2ccccc2)NC(=O)[C@H](CCC(=O)O)NC(=O)[C@H](CO)NC(C)=O)CCSC[C@@H](C(=O)N[C@H](C(=O)N[C@@H](CCC(=O)O)C(=O)NCC(=O)N[C@@H](CCC(=O)O)C(=O)NCCOCCOCC(=O)N[C@@H](CCC(=O)O)C(=O)N[C@@H](CO)C(=O)N[C@@H](CCCCNC(=O)CC[C@H](NC(=O)CCCCCCCCCCCCCCCCC(=O)O)C(=O)O)C(N)=O)[C@@H](C)O)NC(=O)[C@H](CCCNC(=N)N)NC(=O)[C@H](Cc2c[nH]cn2)NC(=O)[C@H](CCC(=O)O)NC(=O)CNC(=O)[C@H](Cc2c[nH]c3ccccc23)NC(=O)[C@H](CC(=O)O)NC(=O)[C@H](CCC(N)=O)NC(=O)[C@H](Cc2cn(C)c3ccccc23)NC1=O
B2: Compound 150 (peptide)
peptide: SEFAIWQDWGEHRCGEGEXESK
modifications: not fully specified; N-acetyl; C-terminal amide; delta-cystathionine (Ctt2) thioether bridge A4-hCys14 (hCys written C); W6 is 1-Me-Trp; G10 is Sar; G15 is Sar; X19 is Peg3; K22 side chain bears [17-carboxy-heptadecanoyl][γGlu]G[γGlu]
B3: Compound 23 (peptide)
peptide: Ac-FCIWQDWGEHRCT-NH2
modifications: disulfide 2-12
SMILES: CC[C@H](C)[C@@H]1NC(=O)[C@@H](NC(=O)[C@H](Cc2ccccc2)NC(C)=O)CSSC[C@@H](C(=O)N[C@H](C(N)=O)[C@@H](C)O)NC(=O)[C@H](CCCNC(=N)N)NC(=O)[C@H](Cc2c[nH]cn2)NC(=O)[C@H](CCC(=O)O)NC(=O)CNC(=O)[C@H](Cc2c[nH]c3ccccc23)NC(=O)[C@H](CC(=O)O)NC(=O)[C@H](CCC(N)=O)NC(=O)[C@H](Cc2c[nH]c3ccccc23)NC1=O
B4: Compound 67 (peptide)
peptide: Ac-SEFCI[Trp(1-Me)]QDWGEHRCTGAES-NH2
modifications: disulfide 4-14
SMILES: CC[C@H](C)[C@@H]1NC(=O)[C@@H](NC(=O)[C@H](Cc2ccccc2)NC(=O)[C@H](CCC(=O)O)NC(=O)[C@H](CO)NC(C)=O)CSSC[C@@H](C(=O)N[C@H](C(=O)NCC(=O)N[C@@H](C)C(=O)N[C@@H](CCC(=O)O)C(=O)N[C@@H](CO)C(N)=O)[C@@H](C)O)NC(=O)[C@H](CCCNC(=N)N)NC(=O)[C@H](Cc2c[nH]cn2)NC(=O)[C@H](CCC(=O)O)NC(=O)CNC(=O)[C@H](Cc2c[nH]c3ccccc23)NC(=O)[C@H](CC(=O)O)NC(=O)[C@H](CCC(N)=O)NC(=O)[C@H](Cc2cn(C)c3ccccc23)NC1=O
B5: Compound 130 (peptide)
peptide: Ac-SEFCI[Trp(1-Me)]QDWGEHRCTEGEGGGK([γGlu-Gly-γGlu-C18 diacid])-NH2
modifications: disulfide 4-14
SMILES: CC[C@H](C)[C@@H]1NC(=O)[C@@H](NC(=O)[C@H](Cc2ccccc2)NC(=O)[C@H](CCC(=O)O)NC(=O)[C@H](CO)NC(C)=O)CSSC[C@@H](C(=O)N[C@H](C(=O)N[C@@H](CCC(=O)O)C(=O)NCC(=O)N[C@@H](CCC(=O)O)C(=O)NCC(=O)NCC(=O)NCC(=O)N[C@@H](CCCCNC(=O)CC[C@H](NC(=O)CNC(=O)CC[C@H](NC(=O)CCCCCCCCCCCCCCCCC(=O)O)C(=O)O)C(=O)O)C(N)=O)[C@@H](C)O)NC(=O)[C@H](CCCNC(=N)N)NC(=O)[C@H](Cc2c[nH]cn2)NC(=O)[C@H](CCC(=O)O)NC(=O)CNC(=O)[C@H](Cc2c[nH]c3ccccc23)NC(=O)[C@H](CC(=O)O)NC(=O)[C@H](CCC(N)=O)NC(=O)[C@H](Cc2cn(C)c3ccccc23)NC1=O
B6: Compound 157 (peptide)
peptide: Ac-SEFAI[Trp(1-Me)]QDWGEHR[hCys]TEGEGGGK([γGlu-Gly-γGlu-C18 diacid])-NH2
modifications: thioether 4-14
SMILES: CC[C@H](C)[C@@H]1NC(=O)[C@@H](NC(=O)[C@H](Cc2ccccc2)NC(=O)[C@H](CCC(=O)O)NC(=O)[C@H](CO)NC(C)=O)CSCC[C@@H](C(=O)N[C@H](C(=O)N[C@@H](CCC(=O)O)C(=O)NCC(=O)N[C@@H](CCC(=O)O)C(=O)NCC(=O)NCC(=O)NCC(=O)N[C@@H](CCCCNC(=O)CC[C@H](NC(=O)CNC(=O)CC[C@H](NC(=O)CCCCCCCCCCCCCCCCC(=O)O)C(=O)O)C(=O)O)C(N)=O)[C@@H](C)O)NC(=O)[C@H](CCCNC(=N)N)NC(=O)[C@H](Cc2c[nH]cn2)NC(=O)[C@H](CCC(=O)O)NC(=O)CNC(=O)[C@H](Cc2c[nH]c3ccccc23)NC(=O)[C@H](CC(=O)O)NC(=O)[C@H](CCC(N)=O)NC(=O)[C@H](Cc2cn(C)c3ccccc23)NC1=O
B7: Compound 147 (peptide)
peptide: SEFAIWQDWGEHRCGEXXK
modifications: not fully specified; N-acetyl; C-terminal amide; delta-cystathionine (Ctt2) thioether bridge A4-hCys14 (hCys written C); W6 is 1-Me-Trp; G10 is Sar; G15 is Sar; X17 and X18 are Peg3; K19 side chain bears [17-carboxy-heptadecanoyl][γGlu]G[γGlu]
B8: Compound 141 (peptide)
peptide: Ac-SEFCI[Trp(1-Me)]QDWGEHRC[Sar]EGESESK([γGlu-C18 diacid])-NH2
modifications: disulfide 4-14
SMILES: CC[C@H](C)[C@@H]1NC(=O)[C@@H](NC(=O)[C@H](Cc2ccccc2)NC(=O)[C@H](CCC(=O)O)NC(=O)[C@H](CO)NC(C)=O)CSSC[C@@H](C(=O)N(C)CC(=O)N[C@@H](CCC(=O)O)C(=O)NCC(=O)N[C@@H](CCC(=O)O)C(=O)N[C@@H](CO)C(=O)N[C@@H](CCC(=O)O)C(=O)N[C@@H](CO)C(=O)N[C@@H](CCCCNC(=O)CC[C@H](NC(=O)CCCCCCCCCCCCCCCCC(=O)O)C(=O)O)C(N)=O)NC(=O)[C@H](CCCNC(=N)N)NC(=O)[C@H](Cc2c[nH]cn2)NC(=O)[C@H](CCC(=O)O)NC(=O)CNC(=O)[C@H](Cc2c[nH]c3ccccc23)NC(=O)[C@H](CC(=O)O)NC(=O)[C@H](CCC(N)=O)NC(=O)[C@H](Cc2cn(C)c3ccccc23)NC1=O
B9: Compound 61 (peptide)
peptide: Ac-FCI[Trp(1-Me)]QDWGEHRCTGAES-NH2
modifications: disulfide 2-12
SMILES: CC[C@H](C)[C@@H]1NC(=O)[C@@H](NC(=O)[C@H](Cc2ccccc2)NC(C)=O)CSSC[C@@H](C(=O)N[C@H](C(=O)NCC(=O)N[C@@H](C)C(=O)N[C@@H](CCC(=O)O)C(=O)N[C@@H](CO)C(N)=O)[C@@H](C)O)NC(=O)[C@H](CCCNC(=N)N)NC(=O)[C@H](Cc2c[nH]cn2)NC(=O)[C@H](CCC(=O)O)NC(=O)CNC(=O)[C@H](Cc2c[nH]c3ccccc23)NC(=O)[C@H](CC(=O)O)NC(=O)[C@H](CCC(N)=O)NC(=O)[C@H](Cc2cn(C)c3ccccc23)NC1=O
B10: Compound 139 (peptide)
peptide: Ac-SEFCI[Trp(1-Me)]QDWGEHRC[Sar]EGESESK([γGlu-Gly-γGlu-C18 diacid])-NH2
modifications: disulfide 4-14
SMILES: CC[C@H](C)[C@@H]1NC(=O)[C@@H](NC(=O)[C@H](Cc2ccccc2)NC(=O)[C@H](CCC(=O)O)NC(=O)[C@H](CO)NC(C)=O)CSSC[C@@H](C(=O)N(C)CC(=O)N[C@@H](CCC(=O)O)C(=O)NCC(=O)N[C@@H](CCC(=O)O)C(=O)N[C@@H](CO)C(=O)N[C@@H](CCC(=O)O)C(=O)N[C@@H](CO)C(=O)N[C@@H](CCCCNC(=O)CC[C@H](NC(=O)CNC(=O)CC[C@H](NC(=O)CCCCCCCCCCCCCCCCC(=O)O)C(=O)O)C(=O)O)C(N)=O)NC(=O)[C@H](CCCNC(=N)N)NC(=O)[C@H](Cc2c[nH]cn2)NC(=O)[C@H](CCC(=O)O)NC(=O)CNC(=O)[C@H](Cc2c[nH]c3ccccc23)NC(=O)[C@H](CC(=O)O)NC(=O)[C@H](CCC(N)=O)NC(=O)[C@H](Cc2cn(C)c3ccccc23)NC1=O

Biological target: T1, Human C3 (human, UniProt P01024 23-1663)
Test: cell-based or functional assay

T1 sequence (P01024 23-1663 limits assumed): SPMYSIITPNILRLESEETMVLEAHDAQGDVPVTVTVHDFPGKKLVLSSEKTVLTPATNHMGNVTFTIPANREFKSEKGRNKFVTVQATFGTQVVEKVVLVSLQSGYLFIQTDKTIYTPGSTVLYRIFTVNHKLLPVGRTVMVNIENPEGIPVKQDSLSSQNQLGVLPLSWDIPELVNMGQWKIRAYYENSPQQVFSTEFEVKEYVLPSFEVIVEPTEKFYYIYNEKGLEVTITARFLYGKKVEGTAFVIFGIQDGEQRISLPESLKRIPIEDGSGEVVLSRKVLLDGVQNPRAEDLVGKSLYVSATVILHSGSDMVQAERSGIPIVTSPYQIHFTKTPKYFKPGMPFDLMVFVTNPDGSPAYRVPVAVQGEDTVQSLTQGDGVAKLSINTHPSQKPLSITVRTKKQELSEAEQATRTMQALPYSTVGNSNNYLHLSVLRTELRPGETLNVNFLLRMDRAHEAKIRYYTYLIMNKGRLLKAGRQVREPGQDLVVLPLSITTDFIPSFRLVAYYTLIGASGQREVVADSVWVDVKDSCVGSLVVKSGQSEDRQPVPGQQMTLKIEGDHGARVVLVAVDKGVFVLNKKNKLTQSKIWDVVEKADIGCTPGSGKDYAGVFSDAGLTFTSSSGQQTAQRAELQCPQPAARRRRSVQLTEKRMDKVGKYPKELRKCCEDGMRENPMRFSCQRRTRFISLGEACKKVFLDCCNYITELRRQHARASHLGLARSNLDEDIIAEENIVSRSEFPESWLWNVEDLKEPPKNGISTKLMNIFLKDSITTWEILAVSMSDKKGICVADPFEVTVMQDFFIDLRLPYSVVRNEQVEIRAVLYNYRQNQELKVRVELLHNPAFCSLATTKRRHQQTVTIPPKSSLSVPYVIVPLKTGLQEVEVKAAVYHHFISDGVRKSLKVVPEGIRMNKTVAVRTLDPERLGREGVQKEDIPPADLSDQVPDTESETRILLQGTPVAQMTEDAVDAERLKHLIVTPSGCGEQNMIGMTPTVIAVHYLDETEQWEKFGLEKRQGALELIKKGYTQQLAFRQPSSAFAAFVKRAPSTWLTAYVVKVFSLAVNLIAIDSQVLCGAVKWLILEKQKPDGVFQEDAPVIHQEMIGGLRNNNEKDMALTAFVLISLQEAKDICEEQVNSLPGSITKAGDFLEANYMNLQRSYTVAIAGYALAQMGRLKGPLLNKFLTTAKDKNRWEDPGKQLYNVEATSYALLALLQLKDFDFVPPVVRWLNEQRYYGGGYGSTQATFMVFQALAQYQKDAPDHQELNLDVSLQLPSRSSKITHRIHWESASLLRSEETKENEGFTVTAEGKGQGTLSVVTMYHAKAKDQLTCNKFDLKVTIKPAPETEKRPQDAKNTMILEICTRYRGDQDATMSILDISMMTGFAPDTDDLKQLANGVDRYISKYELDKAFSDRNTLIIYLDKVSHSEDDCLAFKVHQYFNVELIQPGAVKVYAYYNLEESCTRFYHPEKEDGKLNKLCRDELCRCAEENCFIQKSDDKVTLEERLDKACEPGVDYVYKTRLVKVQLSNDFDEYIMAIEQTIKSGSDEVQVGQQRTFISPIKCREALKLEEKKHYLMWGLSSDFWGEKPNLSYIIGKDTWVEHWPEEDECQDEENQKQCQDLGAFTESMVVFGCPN

Binder	IC50[nM], inhibition of hemolysis
Ac-SEFCI[Trp(1-Me)]QDWGEHRC[Sar]EGE[AEEA]ESK([γGlu-γGlu-C18 diacid])-NH2 (disulfide 4-14) [Compound 140]	< 100 nM
Ac-SEFCI[Trp(1-Me)]QDWGEHRCTEGE[AEEA]ESK([γGlu-C18 diacid])-NH2 (disulfide 4-14) [Compound 142]	< 100 nM
B1	< 250 nM
B2	< 100 nM
B3	< 100 nM
B4	< 100 nM
Ac-SEFCI[Trp(1-Me)]QDWGEHRC[Sar]EGE[AEEA][AEEA]K([γGlu-Gly-γGlu-C16 diacid])-NH2 (disulfide 4-14) [Compound 127]	< 100 nM
B5	< 100 nM
B6	< 100 nM
B7	< 100 nM
Ac-SEF[hCys]I[Trp(1-Me)]QDW[Sar]EHRA[Sar]E[AEEA][AEEA]K([γGlu-Gly-γGlu-C18 diacid])-NH2 (thioether 4-14) [Compound 164]	< 100 nM
Ac-SEFAI[Trp(1-Me)]QDWGEHR[hCys][Sar]EGAK([AEEA-γGlu-AEEA-Gly-γGlu-C18 diacid])-NH2 (thioether 4-14; not fully specified) [Compound 154]	< 100 nM
B8	< 100 nM
B9	< 100 nM
B10	< 100 nM

Biological target: T1, Human C3
Test: SPR, C3 immobilised
Description: Surface plasmon resonance (SPR) was used to characterize peptides with respect to their binding affinity (Kd) for C3. Human C3 (Complement tech cat #A1 13c) was immobilised on individual flow cells of CM5 sensor chips (GE Healthcare) using standard amine coupling to a density of approximately 3000 resonance units (RU) in a buffer consisting of 10 mM phosphate pH 7.4, 150 mM NaCl, 0.05% Tween20.
For interaction experiments a multi-cycle experiment approach was used and performed using either a Biacore™ T200 or Biacore™ X100 instrument (GE Healthcare) at 25° C. Peptides were injected in increasing concentration series (5-8 different concentrations) for 60-120 s at a flow rate of 30 μL/min in a buffer consisting of 10 mM Tris buffer at pH 7.4, with 150 mM NaCl and 0.05% Tween20. This was followed by a dissociation period for up to 10 min. The C3 surface was regenerated between runs by a 45 s injection of 3 M MgCl₂.
Sensorgrams were double-referenced (reference surface, blanks) prior to analysis of the kinetic profiles by globally fitting data to a 1:1 Langmuir binding model to obtain association and dissociation rates for calculation of the equilibrium dissociation constant Kd. Each peptide was tested at in at least 2 independent experiments.

Kd	Binder
7.6 nM	Ac-SEFCI[Trp(1-Me)]QDWGEHRC[Sar]EGE[AEEA]ESK([γGlu-γGlu-C18 diacid])-NH2 (disulfide 4-14) [Compound 140]
4.8 nM	Ac-SEFCI[Trp(1-Me)]QDWGEHRCTEGE[AEEA]ESK([γGlu-C18 diacid])-NH2 (disulfide 4-14) [Compound 142]
20.7 nM	B1
0.56 nM	B2
2.8 nM	B3
0.68 nM	B4
8.5 nM	Ac-SEFCI[Trp(1-Me)]QDWGEHRC[Sar]EGE[AEEA][AEEA]K([γGlu-Gly-γGlu-C16 diacid])-NH2 (disulfide 4-14) [Compound 127]
4.4 nM	B5
3.5 nM	B6
0.71 nM	B7
6.4 nM	Ac-SEF[hCys]I[Trp(1-Me)]QDW[Sar]EHRA[Sar]E[AEEA][AEEA]K([γGlu-Gly-γGlu-C18 diacid])-NH2 (thioether 4-14) [Compound 164]
2.4 nM	Ac-SEFAI[Trp(1-Me)]QDWGEHR[hCys][Sar]EGAK([AEEA-γGlu-AEEA-Gly-γGlu-C18 diacid])-NH2 (thioether 4-14; not fully specified) [Compound 154]
6.6 nM	B8
0.33 nM	B9
7.4 nM	B10
